Consider four molecules from PMC5717197, “Mechanistic insight into TRIP13-catalyzed Mad2 structural transition and spindle checkpoint silencing” (Nature Communications, 2017).

Where a chain is given by its changes, count along the chain named.

For data set [1], the target named is T1, His6-Mad2 (containing the C79S and C106S mutations) (human, UniProt Q13257 1-205, C79S | C106S).
T1 construct: Mad2, human; C79S and C106S to avoid disulfide formation in vitro; The His6 tag was not cleaved; also called C-Mad2; source: E. coli BL21 (DE3), purified (Ni-NTA, Resource Q, Superdex 200 Increase); not shown: His6, N-terminal, kept
T1 sequence (Q13257 whole entry C79S/C106S): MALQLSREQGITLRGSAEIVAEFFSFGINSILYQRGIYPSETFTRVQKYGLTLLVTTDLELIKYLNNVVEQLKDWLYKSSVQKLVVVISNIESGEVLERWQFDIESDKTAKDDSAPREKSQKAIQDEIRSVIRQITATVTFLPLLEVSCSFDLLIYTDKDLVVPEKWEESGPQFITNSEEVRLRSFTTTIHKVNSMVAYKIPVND
The data set is described as follows: pull-down; Mad2 dissociation assay: MBP1 or Cdc20N coupled to SulfoLink resin, loaded with His6-Mad2 (0.5 mg/ml), washed, then TRIP13 and ΔN35-p31comet with 1 mM ATP for 30-60 min; Reaction Buffer (25 mM Tris pH 7.5, 200 mM NaCl, 10 mM MgCl2, 1 mM DTT, 5% glycerol, 0.05% Tween), room temperature; bound proteins by SDS-PAGE and Coomassie. Particulars: both partners purified.

Data set [2] deals with the molecule itself. Briefly: SEC; gel filtration column in the presence of ATP.

B1: MBP1 peptide (peptide)
peptide: SWYSYPPPQRAVC
notes: Coupled to SulfoLink Coupling Resin in the bead assays; source: synthetic peptide (Protein Chemistry Technology Core, UTSW)
B1: the binding result in data set [1] is reported as “binds”.

B2: Cdc20N-His6 (residues 1-170 of human Cdc20) (domain or fragment, UniProt Q12834 1-170, looked up)
chain: MAQFAFESDLHSLLQLDAPIPNAPPARWQRKAKEAAGPAPSPMRAANRSHSAGRTPGRTPGKSSSKVQTTPSKPGGDRYIPHRSAAQMEVASFLLSKENQPENSQTPTKKEHQKAWALNLNGFDVEEAKILRLSGKPQNAPEGYQNRLKVLYSQKATPGSSRKTCRYIPS
notes: Cdc20, human, residues 1-170; Coupled to SulfoLink Coupling Resin in the bead assays; also called Cdc20 N-terminal 170-residue fragment; source: E. coli BL21 (DE3), purified from 8 M urea (Ni-NTA), dialysed
For the molecule B2, the binding result in data set [1] is listed as “binds”.

B3: TRIP13 wild type (enzyme, human, UniProt Q15645 1-432, looked up)
chain: MDEAVGDLKQALPCVAESPTVHVEVHQRGSSTAKKEDINLSVRKLLNRHNIVFGDYTWTEFDEPFLTRNVQSVSIIDTELKVKDSQPIDLSACTVALHIFQLNEDGPSSENLEEETENIIAANHWVLPAAEFHGLWDSLVYDVEVKSHLLDYVMTTLLFSDKNVNSNLITWNRVVLLHGPPGTGKTSLCKALAQKLTIRLSSRYRYGQLIEINSHSLFSKWFSESGKLVTKMFQKIQDLIDDKDALVFVLIDEVESLTAARNACRAGTEPSDAIRVVNAVLTQIDQIKRHSNVVILTTSNITEKIDVAFVDRADIKQYIGPPSAAAIFKIYLSCLEELMKCQIIYPRQQLLTLRELEMIGFIENNVSKLSLLLNDISRKSEGLSGRVLRKLPFLAHALYVQAPTVTIEGFLQALSLAVDKQFEERKKLAAYI
notes: TRIP13, human; its own AUC and gel filtration show no discrete oligomer; also called TRIP13 WT; source: E. coli BL21 (DE3), purified (Ni-NTA, TEV, Resource Q, Superdex 200); not shown: His6, N-terminal, cleaved
For the molecule B3, the binding result in data set [2] is recorded as “binds”.

B4: TRIP13 G320A (enzyme, human, UniProt Q15645 1-432, looked up)
chain: B3 chain with G320A
notes: TRIP13, human; source: E. coli BL21 (DE3), purified (Ni-NTA, TEV, Resource Q, Superdex 200); not shown: His6, N-terminal, cleaved
As to B4, in data set [2], the binding result is listed as “binds”.
